In the supplement of paper PMC10567573:
± gives the standard deviation.

Assay: protein stability index of a GFP-peptide fusion (GPS, HEK-293T) (PSI 1-6); higher = more stable
[1] = treatment: DMSO, c terminus: a fixed tail appended
[2] = treatment: MLN4924 1 uM, 8 h, c terminus: a fixed tail appended
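Note: 24-mer peptide tiles fused after GFP, lentivirally expressed, FACS-sorted into six equal bins by GFP/DsRed ratio, decoded by Illumina sequencing, PSI is the read-weighted mean bin number.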

Sequence | protein stability index [1] | protein stability index [2] | protein stability index (treatment: DMSO, c terminus: native) | protein stability index (treatment: MLN4924 1 uM, 8 h, c terminus: native)
QDCGFEHLVPVIEMWADQLTSLKD [CEP70] | 2.76 ± 0.39 | 2.94 ± 0.53 | – | –
GREKPGPLDFEAYSAAALQEAMKR [FCHO1] | 4.21 ± 0.27 | 4.26 ± 0.18 | – | –
GTGTGPEDGRPSLGSPYGQPPRFP [PDLIM4] | 4.37 ± 0.21 | 4.53 ± 0.22 | – | –
LLHLDLKPANILLDAHYHVKISDF [RIPK4] | 2.45 ± 0.32 | 2.36 ± 0.48 | – | –
FLLAFGLMIIVCIDQWKNKIWPEI [RETREG3] | 2.94 ± 0.4 | 3.09 ± 0.35 | – | –
LIFFGGYGYLPEDKVLGTFEFDET [KLHDC2] | 2.13 ± 0.66 | 2.6 ± 0.73 | – | –
TVHEVDIFRCFCPVFLHSQMLWEL [DENND6A] | 2.89 ± 0.61 | 3.33 ± 0.49 | – | –
REPYYARPEPELETFSPPLPAGPG [CPXM2] | 4.7 ± 0.26 | 4.47 ± 0.38 | – | –
IYVIGGYDGRSRLSSVECLDYTAD [KLHL12] | 2.86 ± 0.46 | 2.63 ± 0.41 | – | –
GQTPLAVSISISGSSRPCLDFLQE [ASB7] | 2.83 ± 0.93 | 2.24 ± 0.37 | – | –
HLDPGFLASDKTSAGNAPLNEEIN [C18orf25] | 4.75 ± 0.29 | 4.97 ± 0.33 | – | –
MQIAVPCAFLLLRLLVGLALATLR [TMEM175] | 2.46 ± 0.28 | 2.26 ± 0.17 | – | –
HVRHMAYQLCHALRFLHENQLTHT [CLK3] | 3.06 ± 0.3 | 3.01 ± 0.38 | – | –
MGIYQMYLCFLLAVLLQLYVATEA [SLC22A15] | 2.92 ± 0.38 | 2.84 ± 0.41 | – | –
GAGHFEVVKLLVSHGANVNHTTVT [FEM1B] | 2.23 ± 0.51 | 2.26 ± 0.2 | – | –
LQYSTQVHTEFTLRNFNSAKDMKK [MATN2] | 3.73 ± 0.3 | 4.08 ± 0.32 | – | –
GQGPKPEADSQEQGHPQTGCECED [GAGE1] | 5.64 ± 0.15 | 5.4 ± 0.31 | – | –
DFIHRHCQDQNVPVENFFVKCNGA [SDE2] | 2.83 ± 0.088 | 2.95 ± 0.34 | – | –
KREMILKRKEEEALKDSLRPKLSE [VDR] | 4.82 ± 0.28 | 5.24 ± 0.24 | – | –
ESETRKAAKRMRLEIYQSSQDEPI [NOL4L] | 4.58 ± 0.071 | 4.65 ± 0.24 | – | –
EIKDLILPKISDPNFVKDLEEDLY [PI4K2A] | 3.16 ± 0.5 | 3.12 ± 0.38 | – | –
VVLCEGVKWLSFHSGYDFGYLIKI [CNOT7] | 2.87 ± 0.36 | 3.09 ± 1.2 | – | –

Sequence | protein stability index [1] | protein stability index [2] | protein stability index (treatment: DMSO, c terminus: native) | protein stability index (treatment: MLN4924 1 uM, 8 h, c terminus: native)
AGLFSQEQYERNKSSSSSSSSSSS [TMEM40] | 5.16 ± 0.083 | 5.32 ± 0.2 | – | –
SSSQEIPTMPQPIEKVSVSTQTKK [ZMYND11] | 5.33 ± 0.42 | 5.37 ± 0.23 | – | –
DALRFTADVRSVLSRNLHQHRLW [CTDNEP1] | – | – | 2.6 ± 0.48 | 2.99 ± 0.26
FLSENATVAAETRAVIAWMEKIPF [CPXM2] | 2.04 ± 0.12 | 2.28 ± 0.5 | – | –
VLSREQSRRSYDDQLRSGSPPKSP [DNAJC4] | 5.29 ± 0.26 | 5.45 ± 0.12 | – | –
KGSLPQPPITEVESQVFSEKLATD [ZNF232] | 5.44 ± 0.17 | 5.24 ± 0.24 | – | –
VGVMLPHNTTEAPGPHSAKQDSYE [ZC2HC1C] | 5.03 ± 0.27 | 5.215 ± 0.033 | – | –
LGPVPREDQAEAWGCSCCPPETKH [TSPAN10] | 4.91 ± 0.083 | 4.97 ± 0.32 | – | –
RLLKTLETSRSHDLEAVVPQNGSE [ATP23] | 4 ± 0.23 | 4.09 ± 0.19 | – | –
TWVTVKNGSGDMIFEGNSEKEIPV [CPXM2] | 4 ± 0.2 | 3.9 ± 0.081 | – | –
GSSETETEPPVALAPGPAPTRCLP [ESRRA] | 5.23 ± 0.28 | 5.16 ± 0.11 | – | –
EGKTKKGVLEAPDTQVNPVGSVSV [FBXO34] | 5.08 ± 0.17 | 5.14 ± 0.11 | – | –
IWDALDWTMQAYERNFWDPSPQLD [WDR41] | 2.2 ± 0.27 | 2.02 ± 0.34 | – | –
GLTKKRTKVQKKSLLLKKPLRVDL [NOP53] | 3.25 ± 0.13 | 3.42 ± 0.35 | – | –
AIVDLISRQYDKFLTHFILMNDVI [FBXO33] | 3.1 ± 0.45 | 3.36 ± 0.28 | – | –
KQIYNLIHLDPRTREGFTLLHLAV [FEM1B] | 2.66 ± 0.52 | 2.67 ± 0.61 | – | –
QLISRMEYVHSKNLIYRDVKPENF [CSNK1G3] | 2.37 ± 0.24 | 2.42 ± 0.17 | – | –
DERIFSLTRRLAHGEELRVSARSR [HAGHL] | 4.1 ± 0.33 | 4.12 ± 0.32 | – | –
KVEEVSLPEQVDIIISEPMGYMLF [CARM1] | 2.88 ± 0.49 | 2.54 ± 0.35 | – | –
SSFTWSVPSSGYGAVTASKHSNSP [SMTNL2] | 3.82 ± 0.26 | 3.87 ± 0.095 | – | –
LEAGLPLQVRGYPEEKKEEEGSAN [CHGA] | 5.61 ± 0.35 | 5.79 ± 0.15 | – | –
GLSGGALSPLRAASDPLLSSVSPA [TFE3] | 3.91 ± 0.32 | 3.91 ± 0.099 | – | –
